Measurements: the supplement of paper PMC9170038

Test system: MS2 coat protein
Assay: apparent KD of MS2 coat protein; designed switch direction (-1 OFF switch, 1 ON switch): -1; higher = weaker reporter binding
In short: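 Designed RNA switches were transcribed on Illumina chips by stalled E. coli RNA polymerase and titrated with SNAP-549-labelled MS2 coat protein from 0.7 or 1.5 nM, doubling to 3 µM. Step length ran from 0.8–1.5 h at the lowest concentration to 10–20 min at the highest. The apparent KD is the median over clusters for each design, from curve-fitted normalised cluster fluorescence.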

[1] = input ligand: microRNA oligo, concentration not stated
[2] = Eterna round: R95, input ligand: microRNA oligo, concentration not stated
[3] = Eterna round: R95, input ligand: FMN 200 uM
[4] = Eterna round: R95, input ligand: none

Sequence | apparent KD of MS2 coat protein (input ligand: FMN 200 uM) [nM] | apparent KD of MS2 coat protein [1] [nM] | apparent KD of MS2 coat protein (input ligand: none) [nM] | apparent KD of MS2 coat protein [2] [nM] | apparent KD of MS2 coat protein [3] [nM] | apparent KD of MS2 coat protein [4] [nM]
ACGAUGACCGAAAAGUGUCAACUGACAUGAGGAUCACCCAUGUAGGAUAUGGCUACGAAAAGUAGUCAGAAGGACAAGUCAUCA [Omei Exc(NG) 3 Av5] (Eterna round: R96, puzzle: Exclusion NG 3) | 12.4 | 8.52 | 14 |  |  | 
ACGCGACAUGAGGAUCACCCAUGUGAGGAUAUGGCCUGUUUGUCGUGUGCUGGCUCUGUCAGAAGGCGCGUGGG [salish99_ex1_r4_041] (Eterna round: R97, puzzle: Exclusion 1) | 612 |  | 683 |  |  | 
ACGUAUAGAGGAUAUAGUGAAUAUUACAUGAGGAUCACCCAUGUUCUUCAAAGUAUAUUUCUAGAAGGCUAAUGAA [EX-5 Malc#10] (puzzle: Exclusion 5) |  |  |  | 35.5 |  | 
ACGUGAUAUCUGUCGGUGGACAUGAGGAUCACCCAUGUAAGCUCUUUGCUCGUCUUAUAACCCGGUGACAGACCUUC [Xerile] (puzzle: Sensor v3, turn-off variant 1) |  |  |  | 322 | 42.3 | 52.8
ACGUUAGGAGGAUAUAGAAUUUUAGACAUGAGGAUCACCCAUGUCCUAUGUCAUGAGAGGCUAGAAGGCCUAGUUU [Eternabot (L2) Solution 51] (Eterna round: R97, puzzle: Exclusion 5) | 142 |  | 29.4 |  |  | 
ACUAGAUGAGGAUAUGCAUAUUUUCGUGUUCUUCUAGAUUAACAUGAGGAUCACCCAUGUAGAAGGCGUCUGGA [Exclusion 2 - 18] (puzzle: Exclusion 2) |  |  |  | 17.6 |  | 
ACUAUUAGAGGAUAUACAGUUUAUUACAUGAGGAUCACCCAUGUUCUUCAAUGUAUAUAAGUAGAAGGCUAAGGAA [EX-5 Malc#3] (puzzle: Exclusion 5) |  |  |  | 45.9 | 114 | 38.2
ACUCACGCAGGAUAUACAUGAGGAUCACCCAUGUUCAAAGGGCGCGGGAACAUCGUCUGUAGAAGGGCGAACAU [jl-ex3-4.62 ViennaUCT mod] (Eterna round: R97, puzzle: Exclusion 3) | 40.4 |  | 29 |  |  | 
ACUGGAUGCAAGCAGGUCCACAUGAGGAUCACCCAUGUUCGUCGGCCAGCAUCGGCUUCUACCGCAAGCCGCGUGCA [Eternabot (L1) Solution 27] (Eterna round: R97, puzzle: Sensor, turn-off variant 1) | 15.9 |  | 18.8 |  |  | 
ACUUACUGAGGAUAUACAUAGAUUUACAUGAGGAUCACCCAUGUUCCUCUUUGUAUAAAUGUAGAAGGCAGAAGAA [Mat - Exclusion 5 - JL Mod - D58] (Eterna round: R97, puzzle: Exclusion 5) | 177 |  | 93.6 |  |  | 
ACUUACUGAGGAUAUACUUAGAUUUACAUGAGGAUCACCCAUGUUCCUCUAUGUAUAUAUGUAGAAGGCAGAAGUA [Mat - Exclusion 5 - JL Mod - D50] (Eterna round: R97, puzzle: Exclusion 5) | 252 |  | 38 |  |  | 
AGAAAACAUGAGGAUCACCCAUGUGAGGAUAUCGCGCUUAACAGGGUCACAGUGGUGUCGAGAAGGUGCCUGGG [Eternabot (L1) Solution 55] (Eterna round: R97, puzzle: Exclusion 1) | 144 |  | 66.3 |  |  | 
AGAAAGGUAGGAUAUACGAAAAAAAAGGGUAGAAAAAAAACACAUGAGGAUCACCCAUGUAGAAGGACCAAAGA [Mat - Exclusion 2 - Tesla mod - D31] (Eterna round: R96, puzzle: Exclusion 2) |  | 27.6 |  |  |  | 
AGAAGUAGAAACCGAUCCUACAUGAGGAUCACCCAUGUAGCAAGACGUGCACGCGAAGCUCGUCAGACUACCAGAGG [salish99_TOv1_r3_018] (puzzle: Sensor v3, turn-off variant 1) |  |  |  | 124 | 316 | 50.1
AGAGUACAUGAGGAUCACCCAUGUCAGGAUAUGCAGAAGAAGAAGAAGAGAAGAGAGAGCAGAAGGGACAAGAG [Ex 1 M2] (puzzle: Exclusion 1) |  |  |  | 26.2 | 41.1 | 29.4
AGAGUGCUGCGAGGAUAUACAUGAGGAUCACCCAUGUAAAAGUGUGAGGCUUUGCCUCACACUAUGUAGAAGGCGCAGUACUCA [Mat - Exclusion NG 2 - Mod of JL - D10] (Eterna round: R96, puzzle: Exclusion NG 2) | 17.6 | 9.4 | 13.4 |  |  | 

Sequence | apparent KD of MS2 coat protein (input ligand: FMN 200 uM) [nM] | apparent KD of MS2 coat protein [1] [nM] | apparent KD of MS2 coat protein (input ligand: none) [nM] | apparent KD of MS2 coat protein [2] [nM] | apparent KD of MS2 coat protein [3] [nM] | apparent KD of MS2 coat protein [4] [nM]
AGAGUGCUGCGAGGAUAUACAUGAGGAUCACCCAUGUAAUCGUGUGAGGCAAAGCCUCACACGAUGUAGAAGGCGCAGUACUCA [Mat - Exclusion NG 2 - Mod of JL - D24] (Eterna round: R96, puzzle: Exclusion NG 2) | 13.1 | 12.8 | 16.7 |  |  | 
AGAUAGUGGUGAGGAUAUCAGAAUAGAAAGAAAUGAGAAGGCGCACAUGAGGAUCACCCAUGUGAGGUCUUGAGACUACAUGGU [Prohibition 39 - Jieux - Exclusion NG 1] (Eterna round: R96, puzzle: Exclusion NG 1) |  | 15.7 |  |  |  | 
AGAUCCUGAGUCAGGAUAUAGAGACGGUAGUCGGGCUAGAAGGGACAUGAGGAUCACCCAUGUGGGUUCUUGCC [Rilalera] (puzzle: Brourd's mod of Exclusion 4) |  |  |  | 10.1 |  | 
AGAUCGUCAGGAUAUACAUGAGGAUCACCCAUGUGUAGUUCCAAUUGGACUACAACAUGUAGAAGGGACGAUCG [Exclusion 3 (MOD1 of #1 Marzena11)] (Eterna round: R97, puzzle: Exclusion 3) | 1060 |  | 675 |  |  | 
AGAUCUAGGACAGGAUAUACAGAUGGCUUCAUCGAAGAUGAAGCCAUCACAUGAGGAUCACCCAUGUAGAAGGGUCCUAGAUCA [Omei Exc(NG) 2Av4] (Eterna round: R96, puzzle: Exclusion NG 2) | 19.2 | 9.47 | 13.2 |  |  | 
AGAUGACUGGAGGAUAUCCGAUGCUUCCUGCCAGGAGAAGGCCGGACAUGAGGAUCACCCAUGUGGUGAGCUCG [Vezaatinle] (puzzle: Exclusion 6) |  |  |  | 347 | 329 | 444
AGAUGGCGAGGAUAUACAUGAGGAUCACCCAUGUGAGAAGAAAGAGUGAGGAAGAAAAGUAGAAGGCGCUGUCA [Mat - Exclusion 3 - Mod of Salish D19] (puzzle: Exclusion 3) |  |  |  | 95.4 | 209 | 76.1
AGAUGUAGAUACCGAUCCUACAUGAGGAUCACCCAUGUAGCUAGACGUGCACGCGAAGCUCGUCAGACUACCAGAAG [salish99_TOv1_r3_084] (puzzle: Sensor v3, turn-off variant 1) |  |  |  | 144 | 172 | 261
AGAUUACGAGGAUAUCGAGUUUAGUACAUGAGGAUCACCCAUGUUAUCCAGGUCUCGUUUCGAGAAGGCGUGAUUC [LRO-Ex5-08] (puzzle: Exclusion 5) |  |  |  | 200 |  | 
AGCAACGUACAGGAUAUACUUCACCUUCUAGAAGUAGAAGGGUGCACAUGAGGAUCACCCAUGUUAGCGAGCAG [Eternabot (Original) Solution 25] (Eterna round: R97, puzzle: Exclusion 6) | 18.4 |  | 15.9 |  |  | 
AGCACGACUGCAGGAUAUUCCGCAGUUGAUGCGGGAGAAGGGCAGGGCAGCACUUGAGGAUCACCCAAGUGACCGUGUUGCCAA [Mutated MS2 EX1.7] (Eterna round: R96, puzzle: Exclusion NG 1) | 35.8 | 17.2 | 25.1 |  |  | 
AGCAGACGAGGAUAUAAACGAUAUAACAUGAGGAUCACCCAUGUACGAUCGAUAGAUCGUUUAGAAGGCGUCUGCU [E5/9-A1] (Eterna round: R97, puzzle: Exclusion 5) | 14.5 |  | 13.1 |  |  | 
AGCAGACGAGGAUAUGAUUAAUAAUACAUGAGGAUCACCCAUGUAAUACUGAUCUAUGGAUCAGAAGGCGUCUGCU [E5/6-A2] (Eterna round: R97, puzzle: Exclusion 5) | 12 |  | 16.6 |  |  | 
AGCAGGCAUUCCUCUGGACACAUGAGGAUCACCCAUGUUCGUCGCUCGCAGCGUUGAGGCAUUACCCUUAACGCUUU [Eternabot (Original) Solution 29] (Eterna round: R97, puzzle: Sensor, turn-off variant 1) | 52.5 |  | 48.8 |  |  | 
AGCAUGUGAGGAUAUGUACCUGAGUGCUUUGCGCUCAGGAAACAGAAGGCACAUGAGGAUCACCCAUGUGAAAA [jl-ex4-4.45 ViennaUCT mod] (Eterna round: R97, puzzle: Exclusion 4) | 68.7 |  | 281 |  |  | 
